Test results as given in IntAct's records for PubMed 15141091.

B1: Homeobox protein SIX1 (Mus musculus), Q62231 (parent)
chain: MSMLPSFGFTQEQVACVCEVLQQGGNLERLGRFLWSLPACDHLHKNESVLKAKAVVAFHRGNFRELYKILESHQFSPHNHPKLQQLWLKAHYVEAEKLRGRPLGAVGKYRVRRKFPLPRTIWDGEETSYCFKEKSRGVLREWYAHNPYPSPREKRELAEATGLTTTQVSNWFKNRRQRDRAAEAKERENTENNNSSSNKQNQLSPLEGGKPLMSSSEEEFSPPQSPDQNSVLLLQSNMGHARSSNYSLPGLTASQPSHGLQAHQHQLQDSLLGPLTSSLVDLGS
partner: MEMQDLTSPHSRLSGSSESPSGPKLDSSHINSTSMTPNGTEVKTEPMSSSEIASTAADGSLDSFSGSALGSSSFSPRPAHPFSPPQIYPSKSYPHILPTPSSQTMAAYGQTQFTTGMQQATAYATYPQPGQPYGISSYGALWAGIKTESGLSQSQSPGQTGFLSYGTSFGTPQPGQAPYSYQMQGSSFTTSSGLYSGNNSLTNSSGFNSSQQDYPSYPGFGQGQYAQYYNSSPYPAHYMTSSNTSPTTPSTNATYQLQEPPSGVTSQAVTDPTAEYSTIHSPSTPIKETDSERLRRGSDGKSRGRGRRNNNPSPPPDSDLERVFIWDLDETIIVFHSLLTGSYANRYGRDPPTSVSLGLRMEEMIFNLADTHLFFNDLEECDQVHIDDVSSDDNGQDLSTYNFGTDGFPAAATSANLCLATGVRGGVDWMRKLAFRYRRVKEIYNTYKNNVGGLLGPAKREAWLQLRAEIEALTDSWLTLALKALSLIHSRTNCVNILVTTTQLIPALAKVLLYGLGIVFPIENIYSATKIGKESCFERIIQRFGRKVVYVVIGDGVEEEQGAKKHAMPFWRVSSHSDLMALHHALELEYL

Variants of: B1
Conditions: with eya1_mouse Eya1, P97767

Variant | effect of a mutation on the interaction
Y129C | decreasing interaction
R110W | decreasing interaction
